Test results: paper doi:10.1101/2021.12.11.472236 (bioRxiv, 2021)
“And” between values parts separate entries of the source, which are not always exact repeats. Identical values can stand only once.

B1: 10-40 Fab (Fab, V domains shown)
VH: QLQLQESGPGLVKPSETLSLTCTVSGGSISSSNFYWGWIRQPPGKGLEWIASITYSGRTFYNPSLKSRVAISVDTSKNQFSLKLSSVTAADTAVYYCARTFPSYYDRSGYHYLNYGMDVWGQGTTVTVSS
VL: NFMLTQPHSMSESPGKTVTISCTRSSGSIASNYVQWYQQRPGSSPTTVIYEDNQRPSGVPDRFSGSIDSSSNSASLTISGLKTEDEADYYCQSYDSSSWVFGGGTKLTVL
B2: 10-28 Fab (Fab, V domains shown)
VH: QVQLVESGGGVVQPGRSLRLSCAASGFTFSSYDMHWVRQAPGKGLEWVAVISYDGSSKFYAESVKGRFTISRDNSKNTLYLQMNSLRAEETAVYYCVKDGEQLVPLFDYWGQGTLVTVSS
VL: not shown
B3: 11-11 Fab (Fab, V domains shown)
VH: QVQLQESGPGLVKPSQTLSLTCTVSGGSISSGGYYWSWIRQHPGKGLEWIGYIYYSGSTYYNPSLKSRVTISVDTSKNQFSLKVSSVTAADTAVYYCASSNYYDGSGYNLLESYGMDVWGQGTSVTVSS
VL: QSVLTQPPSVSGAPGQRVTISCTGSSSNIGAGYDVHWYQQLPGTAPKLLIYGNSNRPSGVPDRFSGSRSGTSASLAITGLQAEDEADYYCQSYDSSLSGSWVFGGGTKVTVL

How the values were obtained:
[1] = molecular target: S2P-prefusion-stabilized spike protein from SARS-CoV-2 WA-1 (SARS-CoV-2, WA-1, UniProt P0DTC2, stabilised); test: cryo-EM structure
[2] = molecular target: S2P-prefusion-stabilized spike protein from SARS-CoV-2 B.1.351 (SARS-CoV-2, B.1.351 (Beta), strain); test: cryo-EM structure

| Binder | binding result [1] | stoichiometry N [2] |
| --- | --- | --- |
| B1 | binds | 3 Fabs per spike |
| B2 | binds | 3 Fabs per spike |
| B3 | binds | 3 Fabs per spike and 2 Fabs per spike |
